In the test the target is T1, TSEN2 Y369A/H377A/K416A (endonuclease triple mutant in pCDNA3.1-TSEN2-Flag) (human, UniProt Q8NCE0 1-465, Y369A | H377A | K416A).
T1 sequence: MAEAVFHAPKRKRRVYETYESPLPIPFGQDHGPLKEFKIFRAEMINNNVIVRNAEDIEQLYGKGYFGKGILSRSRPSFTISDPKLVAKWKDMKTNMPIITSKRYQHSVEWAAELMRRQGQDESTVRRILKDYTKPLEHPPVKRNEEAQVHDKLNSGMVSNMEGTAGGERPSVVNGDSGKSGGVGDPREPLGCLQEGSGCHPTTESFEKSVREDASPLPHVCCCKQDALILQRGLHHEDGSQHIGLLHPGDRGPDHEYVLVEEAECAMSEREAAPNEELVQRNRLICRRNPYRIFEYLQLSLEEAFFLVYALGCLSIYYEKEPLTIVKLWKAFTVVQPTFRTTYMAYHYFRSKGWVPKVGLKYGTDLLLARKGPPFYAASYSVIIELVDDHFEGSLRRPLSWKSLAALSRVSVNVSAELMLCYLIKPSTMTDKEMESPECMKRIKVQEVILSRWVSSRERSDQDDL
Kind of test: cryo-EM structure.

B1: TSEN15-Flag (pCDNA3.1-TSEN15-Flag) (natural protein, human)
chain: MEERGDSEPTPGCSGLGPGGVRGFGDGGGAPSWAPEDAWMGTHPKYLEMMELDIGDATQVYVAFLVYLDLMESKSWHEVNCVGLPELQLICLVGTEIEGEGLQTVVPTPITASLSHNRIREILKASRKLQGDPDLPMSFTLAIVESDSTIVYYKLTDGFMLPDPQNISLRR
Consider B1, for which the binding result is recorded as “binds”.
